Test results from PMC3918160, “Biochemical studies of the multicopper oxidase (small laccase) from Streptomyces coelicolor using bioactive phytochemicals and site-directed mutagenesis” (Microbial Biotechnology, 2013).

Experiments:
purified protein = substrate: O=c1c(O)c(-c2cc(O)c(O)c(O)c2)oc2cc(O)cc(O)c12; assay: purified protein; settings: 60°C, optimal pH for the substrate, 5% (v/v) DMSO
[1] = substrate: O=c1c(O)c(-c2ccc(O)cc2O)oc2cc(O)cc(O)c12; assay: initial rates, absorbance, Michaelis-Menten fit; format: biochemical, Streptomyces coelicolor; settings: 60°C, optimal pH for the substrate
[2] = substrate: CCn1c(=NN=c2sc3cc(S(=O)(=O)O)ccc3n2CC)sc2cc(S(=O)(=O)O)ccc21; assay: initial rates, absorbance, Michaelis-Menten fit; format: biochemical, Streptomyces coelicolor; settings: 60°C, optimal pH for the substrate
[3] = substrate: COc1cccc(OC)c1O; assay: initial rates, absorbance, Michaelis-Menten fit; format: biochemical, Streptomyces coelicolor; settings: 60°C, optimal pH for the substrate
[4] = substrate: O=c1c(O)c(-c2ccc(O)c(O)c2)oc2cc(O)cc(O)c12; assay: initial rates, absorbance, Michaelis-Menten fit; format: biochemical, Streptomyces coelicolor; settings: 60°C, optimal pH for the substrate, 5% (v/v) DMSO

Protein	Km (purified protein) [µM]	kcat (purified protein) [s⁻¹]	Km ([1]; 5% (v/v) DMSO) [µM]	Km ([2]; universal buffer) [µM]	Km ([3]; universal buffer) [µM]	Km [4] [µM]	Km ([1]; DMSO) [µM]	kcat ([1]; DMSO) [s⁻¹]	Km [2] [µM]	kcat [2] [s⁻¹]	Km [3] [µM]	kcat [3] [s⁻¹]
small laccase (SLAC), SCO6712 (Streptomyces coelicolor A3(2)) (protein) AKGITARTAPAGGEVRHLKMYAEKLADGQMGYGFEKGKASVPGPLIEVNEGDTLHIEFTNTMDVRASLHVHGLDYEISSDGTAMNKSDVEPGGTRTYTWRTHKPGRRDDGTWRPGSAGYWHYHDHVVGTEHGTGGIRNGLYGPVIVRRKGDVLPDATHTIVFNDMTINNRKPHTGPDFEATVGDRVEIVMITHGEYYHTFHMHGHRWADNRTGILTGPDDPSRVIDNKITGPADSFGFQIIAGEGVGAGAWMYHCHVQSHSDMGMVGLFLVKKPDGTIPGYEPHEHGGATAKSGESGEPTGGAAAHEHEH	900 ± 300	8.1 ± 0.8	1500 ± 200	800 ± 100	1100 ± 200	1200 ± 400						
small laccase (SLAC), SCO6712 (Streptomyces coelicolor A3(2); S292A) (protein) AKGITARTAPAGGEVRHLKMYAEKLADGQMGYGFEKGKASVPGPLIEVNEGDTLHIEFTNTMDVRASLHVHGLDYEISSDGTAMNKSDVEPGGTRTYTWRTHKPGRRDDGTWRPGSAGYWHYHDHVVGTEHGTGGIRNGLYGPVIVRRKGDVLPDATHTIVFNDMTINNRKPHTGPDFEATVGDRVEIVMITHGEYYHTFHMHGHRWADNRTGILTGPDDPSRVIDNKITGPADSFGFQIIAGEGVGAGAWMYHCHVQAHSDMGMVGLFLVKKPDGTIPGYEPHEHGGATAKSGESGEPTGGAAAHEHEH							1600 ± 400	4.0 ± 0.4	2400 ± 200	11.1 ± 0.3	120 ± 20	0.93 ± 0.02
